According to the supplement of paper PMC10724198:
± gives the standard deviation of the averaged measurements.

Tested on: Saccharomyces cerevisiae
Experiment: protein stability index of tFT-peptide fusion (C-terminal peptide) (PSI (0-1 scale)); higher = more stable (slower turnover)
Conditions: temperature: 30 C
Procedure: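 MPS profiling in S. cerevisiae of the yeast C-terminome library: the last 12 aa of each annotated ORF are fused to the C-terminus of a sfGFP-mCherry timer, after a GGGS linker. Cells are FACS-sorted into 8 mCherry/sfGFP bins and deep-sequenced. PSI runs from 0 (unstable) to 1 (stable); wild type and das1Δ backgrounds, two technical replicates each.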

[1] = genetic background: das1 deletion

Sequence | protein stability index [1] | protein stability index (genetic background: wild type)
FGDNSKHKTDKI [BOI2 C-terminal 12 aa] | 0.712 ± 0.042 | 0.685 ± 0.019
NKGSQLLAKLLK [PUF6 C-terminal 12 aa] | 0.7305 ± 0.0034 | 0.674 ± 0.036
QEGNRMCIWMSG [YFL015C C-terminal 12 aa] | 0.7 ± 0.0079 | 0.7 ± 0.011
KAASLSLKSTKY [PRP5 C-terminal 12 aa] | 0.71161 ± 0.00019 | 0.673 ± 0.013
STKILETSANYL [RVB1 C-terminal 12 aa] | 0.69 ± 0.019 | 0.679 ± 0.047
YAVSELEGPMLD [CSC1 C-terminal 12 aa] | 0.7 ± 0.016 | 0.6479 ± 0.0011
CFPDDIFEYAVE [GLG1 C-terminal 12 aa] | 0.768 ± 0.015 | 0.76 ± 0.0098
TYSTLINIDVSL [NIC96 C-terminal 12 aa] | 0.702 ± 0.059 | 0.688 ± 0.046
ATPQKRTGPARG [YER088C-A C-terminal 12 aa] | 0.68 ± 0.018 | 0.66 ± 0.018
MAINDCFDQAQG [YER076C C-terminal 12 aa] | 0.695 ± 0.0062 | 0.693 ± 0.012
YWRKQYPDADLP [YAR028W C-terminal 12 aa] | 0.714 ± 0.015 | 0.695 ± 0.033
YFKETLYKLANE [HIS5 C-terminal 12 aa] | 0.687 ± 0.023 | 0.705 ± 0.085
VLNFFKRRSMRV [KIN4 C-terminal 12 aa] | 0.625 ± 0.013 | 0.634 ± 0.084
KKKSKSSKKVKV [ESF1 C-terminal 12 aa] | 0.707 ± 0.017 | 0.653 ± 0.0087
AKEWDLEDPKSM [TAF9 C-terminal 12 aa] | 0.7024 ± 0.0067 | 0.726 ± 0.057
HLPKATSLPYEK [YER097W C-terminal 12 aa] | 0.677 ± 0.0085 | 0.679 ± 0.055
DVEELREQLENC [AIM7 C-terminal 12 aa] | 0.692 ± 0.0025 | 0.723 ± 0.018

Sequence | protein stability index [1] | protein stability index (genetic background: wild type)
RKAVDALRSLTN [ACK1 C-terminal 12 aa] | 0.719 ± 0.051 | 0.722 ± 0.045
NDTEHVTLHTNT [YDL228C C-terminal 12 aa] | 0.711 ± 0.0095 | 0.688 ± 0.031
VENEDEPLFIER [INP51 C-terminal 12 aa] | 0.708 ± 0.0089 | 0.683 ± 0.0088
VIIKVFIRRSDA [YJL086C C-terminal 12 aa] | 0.515 ± 0.024 | 0.461 ± 0.014
SSNFASNIFSLF [YBR089W C-terminal 12 aa] | 0.7346 ± 0.0049 | 0.448 ± 0.01
VTSIMDMPISRE [MVP1 C-terminal 12 aa] | 0.685 ± 0.019 | 0.684 ± 0.019
FKGFLENIDSYT [AIM22 C-terminal 12 aa] | 0.714 ± 0.021 | 0.706 ± 0.0014
DNVEQRVLKQYM [EMC3 C-terminal 12 aa] | 0.6864 ± 0.0062 | 0.651 ± 0.0092
EKCSYYFLSRAH [YNL017C C-terminal 12 aa] | 0.6866 ± 0.0041 | 0.66 ± 0.023
LQARLNTLKKQT [DID4 C-terminal 12 aa] | 0.681 ± 0.049 | 0.604 ± 0.0095
QLLNLLVKISQL [RFC2 C-terminal 12 aa] | 0.677 ± 0.032 | 0.18 ± 0.0089
GGKDKMVRLWTH [RSA4 C-terminal 12 aa] | 0.691 ± 0.011 | 0.698 ± 0.0076
YISKAGSYEVRY [APM4 C-terminal 12 aa] | 0.68349 ± 0.00019 | 0.666 ± 0.03
YNINHRKSVNSV [TDA9 C-terminal 12 aa] | 0.706 ± 0.0094 | 0.6634 ± 0.0026
SSVKNSVEMTDF [TDA11 C-terminal 12 aa] | 0.7099 ± 0.0049 | 0.698 ± 0.012
DDDEEDEIVEVA [HGH1 C-terminal 12 aa] | 0.698 ± 0.033 | 0.6572 ± 0.0019
WKQGGGDFRTKK [RBA50 C-terminal 12 aa] | 0.709 ± 0.022 | 0.667 ± 0.033
